Assay results taken from patent US20220387586A1 (Hoffmann-La Roche, published 2022).

B1: PD1/LAG3 0927 (bispecific antibody, human IgG1, kappa, L234A L235A)
heavy 1: not shown
heavy 2: EVQLLESGGGLVQPGGSLRLSCAASGFIFDDYTMNWVRQAPGKGLEWVAVISWDGGGTYYTDSVKGRFTISRDDFKNTLYLQMNSLRAEDTAVYYCAKGLTDTTLYGSDYWGQGTLVTVSSASTKGPSVFPLAPSSKSTSGGTAALGCLVEDYFPEPVTVSWNSGALTSGVHTFPAVLQSSGLYSLSSVVTVPSSSLGTQTYICNVNHKPSNTKVDEKVEPKSCDKTHTCPPCPAPEAAGGPSVFLFPPKPKDTLMISRTPEVTCVVVDVSHEDPEVKFNWYVDGVEVHNAKTKPREEQYNSTYRVVSVLTVLHQDWLNGKEYKCKVSNKALGAPIEKTISKAKGQPREPQVCTLPPSRDELTKNQVSLSCAVKGFYPSDIAVEWESNGQPENNYKTTPPVLDSDGSFFLVSKLTVDKSRWQQGNVFSCSVMHEALHNHYTQKSLSLSPGK
light 1: EVQLLESGGGLVQPGGSLRLSCAASGFSFSSYTMSWVRQAPGKGLEWVATISGGGRDIYYPDSVKGRFTISRDNSKNTLYLQMNSLRAEDTAVYYCVLLTGRVYFALDSWGQGTLVTVSSASVAAPSVFIFPPSDEQLKSGTASVVCLLNNFYPREAKVQWKVDNALQSGNSQESVTEQDSKDSTYSLSSTLTLSKADYEKHKVYACEVTHQGLSSPVTKSFNRGEC
light 2: not shown
notes: 1+1 CrossMAb Vh-VL, knobs into holes, IgG1 PGLALA
B2: PD1/LAG3 0799 (bispecific antibody, human IgG1, kappa, L234A L235A)
heavy 1: not shown
heavy 2: EVQLVESGGGLVQPGGSLRLACAASGFTFSDYAMSWVRQAPGKGLEWVSGIDNSGYYTYYTDSVKGRFTISRDDVKNTLYLQMNSLRAEDTAVYLCTKTHSGLIVNDAFDIWGQGTMVTVSSASTKGPSVFPLAPSSKSTSGGTAALGCLVEDYFPEPVTVSWNSGALTSGVHTFPAVLQSSGLYSLSSVVTVPSSSLGTQTYICNVNHKPSNTKVDEKVEPKSCDKTHTCPPCPAPEAAGGPSVFLFPPKPKDTLMISRTPEVTCVVVDVSHEDPEVKFNWYVDGVEVHNAKTKPREEQYNSTYRVVSVLTVLHQDWLNGKEYKCKVSNKALGAPIEKTISKAKGQPREPQVCTLPPSRDELTKNQVSLSCAVKGFYPSDIAVEWESNGQPENNYKTTPPVLDSDGSFFLVSKLTVDKSRWQQGNVFSCSVMHEALHNHYTQKSLSLSPGK
light 1: EVQLLESGGGLVQPGGSLRLSCAASGFSFSSYTMSWVRQAPGKGLEWVATISGGGRDIYYPDSVKGRFTISRDNSKNTLYLQMNSLRAEDTAVYYCVLLTGRVYFALDSWGQGTLVTVSSASVAAPSVFIFPPSDEQLKSGTASVVCLLNNFYPREAKVQWKVDNALQSGNSQESVTEQDSKDSTYSLSSTLTLSKADYEKHKVYACEVTHQGLSSPVTKSFNRGEC
light 2: not shown
notes: as for B1

Legend:
[1] = target: T1, PD1 on PD1+LAG3+ human U2OS cells (UniProt Q15116 25-288); assay: cell-based or functional assay
T1 sequence (Q15116 25-288): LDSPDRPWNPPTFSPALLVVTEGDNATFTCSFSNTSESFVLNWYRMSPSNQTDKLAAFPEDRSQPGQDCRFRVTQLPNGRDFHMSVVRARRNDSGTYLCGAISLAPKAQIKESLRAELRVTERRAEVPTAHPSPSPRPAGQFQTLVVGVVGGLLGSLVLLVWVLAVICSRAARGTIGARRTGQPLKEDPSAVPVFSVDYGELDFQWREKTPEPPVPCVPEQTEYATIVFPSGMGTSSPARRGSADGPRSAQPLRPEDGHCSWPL

[2] = target: T2, LAG3 on cells (recombinant CHO cells expressing Lag3) (human, UniProt P18627 29-525); assay: cell ELISA on recombinant CHO cells expressing Lag3 (rel. EC50)
T2 construct: The cell ELISA paragraphs say only 'Lag3'; also called CHO-LAG3; Lag3 cells
T2 sequence: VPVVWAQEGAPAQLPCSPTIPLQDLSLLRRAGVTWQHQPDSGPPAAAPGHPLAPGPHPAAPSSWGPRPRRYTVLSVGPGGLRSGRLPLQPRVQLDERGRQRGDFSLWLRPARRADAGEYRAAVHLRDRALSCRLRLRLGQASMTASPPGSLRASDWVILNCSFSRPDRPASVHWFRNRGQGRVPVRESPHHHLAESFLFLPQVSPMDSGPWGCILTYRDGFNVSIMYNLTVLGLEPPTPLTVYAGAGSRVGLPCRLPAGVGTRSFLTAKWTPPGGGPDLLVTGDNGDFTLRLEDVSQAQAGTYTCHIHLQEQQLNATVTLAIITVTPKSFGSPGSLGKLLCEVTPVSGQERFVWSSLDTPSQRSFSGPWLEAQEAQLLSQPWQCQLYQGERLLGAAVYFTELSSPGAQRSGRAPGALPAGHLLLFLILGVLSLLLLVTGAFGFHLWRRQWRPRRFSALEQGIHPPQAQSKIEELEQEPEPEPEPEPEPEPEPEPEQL

[3] = target: T3, full-length human PD1 on cells (human, UniProt Q15116 25-288); assay: cell ELISA on CHO-K1 cells expressing full-length human PD1 (rel. EC50)
T3 construct: also called CHO-PD1
T3 sequence (Q15116 25-288 limits assumed): as the sequence (Q15116 25-288) above
Outline: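 Cells bound by test antibody were fixed with 0.05% glutaraldehyde for 10 min at RT, then detected with POD-conjugated anti-human H+L or anti-mouse secondary antibody for 1 h at RT. TMB development ran to OD 1.0-2.0, read at 370/492 nm.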

biotinylated-Lag3 = target: T4, biotinylated-Lag3 (UniProt P18627 23-450, limits assumed, biotinylated); assay: ELISA, inhibition of biotinylated-Lag3 binding to MHC-II on A375 cells (competitor MHC-II)
T4 construct: Probably a human LAG3 ECD construct; also called Lag3 (MHCII/ELISA)
T4 sequence (looked up): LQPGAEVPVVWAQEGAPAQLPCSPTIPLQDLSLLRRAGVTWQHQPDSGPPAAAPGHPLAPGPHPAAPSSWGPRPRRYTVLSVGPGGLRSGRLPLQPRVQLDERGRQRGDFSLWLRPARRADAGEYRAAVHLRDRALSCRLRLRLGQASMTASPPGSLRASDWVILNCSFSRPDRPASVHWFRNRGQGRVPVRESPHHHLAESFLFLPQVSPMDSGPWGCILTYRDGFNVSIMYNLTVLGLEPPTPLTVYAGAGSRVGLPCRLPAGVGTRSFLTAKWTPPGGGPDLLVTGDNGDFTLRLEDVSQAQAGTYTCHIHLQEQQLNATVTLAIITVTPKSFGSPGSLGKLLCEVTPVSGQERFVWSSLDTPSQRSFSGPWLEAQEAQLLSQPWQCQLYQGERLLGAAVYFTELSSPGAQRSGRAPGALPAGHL

[4] = target: T1, PD1 on PD1+LAG3+ human U2OS cells; assay: cellular PD1/LAG3 dimerization assay on PD1+LAG3+ U2OS cells, chemoluminescence; the signal needs PD1 and LAG3 bound at once
Method: (§1) For this specific interaction, the cytosolic C-terminal ends of both receptors were individually fused to heterologous subunits of a reporter enzyme.
(§2) On the next day cell medium was discarded and replaced by fresh medium. Antibody or ligand dilutions were prepared and titrated amounts of indicated (bispecific) antibodies were added and incubated at 37° C. for 2 hours. Next, a substrate/buffer mix (e.g. PathHunterFlash detection reagent) was added and again incubated for 1h. For measuring chemoluminescence induced upon simultaneous binding and dimerization a Tecan infinite reader was used.

[5] = target: T5, LAG3 on PD1+LAG3+ human U2OS cells (Homo sapiens (Human), UniProt P18627 23-525); assay: as above
T5 construct: also called cellular LAG3 (dimerization assay); not shown: subunit of the reporter enzyme fused to the cytosolic C-terminus
T5 sequence: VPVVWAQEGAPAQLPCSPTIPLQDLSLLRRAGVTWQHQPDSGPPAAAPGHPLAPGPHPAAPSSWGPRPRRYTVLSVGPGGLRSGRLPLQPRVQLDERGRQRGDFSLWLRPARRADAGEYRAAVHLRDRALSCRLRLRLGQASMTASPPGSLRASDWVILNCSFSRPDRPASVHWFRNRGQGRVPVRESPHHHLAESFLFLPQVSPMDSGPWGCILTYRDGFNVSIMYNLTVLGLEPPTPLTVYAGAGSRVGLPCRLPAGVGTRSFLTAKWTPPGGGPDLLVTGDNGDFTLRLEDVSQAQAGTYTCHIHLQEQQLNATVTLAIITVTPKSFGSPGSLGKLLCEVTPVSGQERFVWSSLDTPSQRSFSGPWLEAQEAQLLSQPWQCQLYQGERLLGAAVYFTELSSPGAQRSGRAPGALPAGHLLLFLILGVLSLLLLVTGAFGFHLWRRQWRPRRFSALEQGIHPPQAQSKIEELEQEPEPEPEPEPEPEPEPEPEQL
Method: as §1, §2

| Binder | EC50 [pM], dimerization binding assay (chemoluminescence) [1] | EC50 [2] | EC50 [3] | IC50 (biotinylated-Lag3) | EC50 (read off the curve) [4] | EC50 (read off the curve) [5] |
| --- | --- | --- | --- | --- | --- | --- |
| B1 | 41 pM | 0.23 nM | 0.1 nM | 1.11 nM | ~0.02 µg/mL | ~0.02 µg/mL |
| B2 | 76 pM | 0.2 nM | 0.07 nM | 0.72 nM | ~0.02 µg/mL | ~0.02 µg/mL |
